Measured values taken from IntAct's records for PubMed 18086875.

Key:
[1] = biological target: fak2_human PTK2B (UniProt Q14289)
[2] = biological target: pak1_human PAK1 (UniProt Q13153)
[3] = biological target: fak1_human PTK2 (UniProt Q05397)
[4] = biological target: fak2_human PTK2B (UniProt Q14289); remark: listed apart in the source

fak2_human PTK2B, sequence (Q14289 whole entry, looked up): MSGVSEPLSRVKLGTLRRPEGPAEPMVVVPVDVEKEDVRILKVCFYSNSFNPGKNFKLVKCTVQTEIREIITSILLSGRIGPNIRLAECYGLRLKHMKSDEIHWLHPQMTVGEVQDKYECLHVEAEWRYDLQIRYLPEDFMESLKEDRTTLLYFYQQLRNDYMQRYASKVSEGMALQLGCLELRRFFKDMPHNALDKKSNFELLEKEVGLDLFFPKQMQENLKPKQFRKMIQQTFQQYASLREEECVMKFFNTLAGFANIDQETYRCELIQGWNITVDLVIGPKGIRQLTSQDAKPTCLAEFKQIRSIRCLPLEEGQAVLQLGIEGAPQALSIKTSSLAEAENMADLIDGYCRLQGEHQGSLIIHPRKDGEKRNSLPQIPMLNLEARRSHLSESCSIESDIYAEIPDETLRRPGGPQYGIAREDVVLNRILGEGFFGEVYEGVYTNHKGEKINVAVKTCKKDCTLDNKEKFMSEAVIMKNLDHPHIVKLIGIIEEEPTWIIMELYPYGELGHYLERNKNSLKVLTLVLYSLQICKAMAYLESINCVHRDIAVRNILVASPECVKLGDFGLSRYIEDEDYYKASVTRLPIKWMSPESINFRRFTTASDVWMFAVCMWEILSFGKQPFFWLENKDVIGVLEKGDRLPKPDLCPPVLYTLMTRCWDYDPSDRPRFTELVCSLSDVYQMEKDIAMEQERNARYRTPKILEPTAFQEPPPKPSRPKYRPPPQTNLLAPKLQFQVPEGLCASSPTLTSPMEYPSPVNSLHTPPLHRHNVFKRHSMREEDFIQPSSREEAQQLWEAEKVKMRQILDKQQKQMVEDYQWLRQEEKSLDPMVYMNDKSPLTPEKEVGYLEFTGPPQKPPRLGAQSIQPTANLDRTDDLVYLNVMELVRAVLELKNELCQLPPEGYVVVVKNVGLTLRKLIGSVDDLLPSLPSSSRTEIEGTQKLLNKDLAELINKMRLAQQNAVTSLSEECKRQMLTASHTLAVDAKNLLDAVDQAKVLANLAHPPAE
fak1_human PTK2, sequence (Q05397 whole entry, looked up): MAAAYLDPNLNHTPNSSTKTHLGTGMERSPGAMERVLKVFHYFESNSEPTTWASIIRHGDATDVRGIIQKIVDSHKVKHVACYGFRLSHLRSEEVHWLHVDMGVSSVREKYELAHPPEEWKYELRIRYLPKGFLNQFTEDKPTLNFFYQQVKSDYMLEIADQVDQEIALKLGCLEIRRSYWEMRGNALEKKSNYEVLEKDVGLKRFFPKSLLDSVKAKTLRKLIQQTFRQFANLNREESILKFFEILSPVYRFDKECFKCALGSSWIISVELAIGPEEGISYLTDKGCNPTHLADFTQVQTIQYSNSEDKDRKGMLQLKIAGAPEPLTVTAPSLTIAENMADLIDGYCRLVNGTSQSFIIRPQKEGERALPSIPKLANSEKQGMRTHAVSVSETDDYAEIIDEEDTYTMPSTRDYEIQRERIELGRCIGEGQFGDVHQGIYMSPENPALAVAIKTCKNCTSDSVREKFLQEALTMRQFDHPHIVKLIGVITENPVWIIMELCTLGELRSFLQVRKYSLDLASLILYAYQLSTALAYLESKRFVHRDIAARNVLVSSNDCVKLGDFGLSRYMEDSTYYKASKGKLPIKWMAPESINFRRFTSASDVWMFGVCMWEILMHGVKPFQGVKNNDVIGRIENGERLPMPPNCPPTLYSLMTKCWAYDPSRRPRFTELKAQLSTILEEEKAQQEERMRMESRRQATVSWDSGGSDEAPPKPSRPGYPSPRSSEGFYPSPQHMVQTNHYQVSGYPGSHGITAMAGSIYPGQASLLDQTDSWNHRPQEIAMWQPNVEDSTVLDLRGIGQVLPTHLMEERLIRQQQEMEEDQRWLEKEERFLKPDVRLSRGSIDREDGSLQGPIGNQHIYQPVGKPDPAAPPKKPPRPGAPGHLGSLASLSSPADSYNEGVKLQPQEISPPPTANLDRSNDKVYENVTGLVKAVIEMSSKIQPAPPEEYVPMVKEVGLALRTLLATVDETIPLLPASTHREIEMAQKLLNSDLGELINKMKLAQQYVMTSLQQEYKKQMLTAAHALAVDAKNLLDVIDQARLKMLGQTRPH
pak1_human PAK1, sequence (Q13153 whole entry): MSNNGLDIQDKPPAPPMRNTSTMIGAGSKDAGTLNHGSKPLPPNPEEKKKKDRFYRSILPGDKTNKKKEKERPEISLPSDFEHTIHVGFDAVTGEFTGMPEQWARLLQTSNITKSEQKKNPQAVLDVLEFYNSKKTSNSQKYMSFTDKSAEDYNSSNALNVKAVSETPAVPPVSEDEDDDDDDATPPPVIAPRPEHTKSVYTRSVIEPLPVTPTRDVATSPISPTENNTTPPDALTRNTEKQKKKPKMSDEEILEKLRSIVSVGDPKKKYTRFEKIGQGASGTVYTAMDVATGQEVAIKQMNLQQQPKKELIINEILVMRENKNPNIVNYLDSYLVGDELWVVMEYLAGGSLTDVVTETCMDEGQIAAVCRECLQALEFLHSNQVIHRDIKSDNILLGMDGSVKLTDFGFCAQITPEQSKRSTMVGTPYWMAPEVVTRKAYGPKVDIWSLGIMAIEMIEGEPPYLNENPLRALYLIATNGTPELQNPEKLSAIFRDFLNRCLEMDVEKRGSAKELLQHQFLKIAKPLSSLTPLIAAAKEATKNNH
Rho-related GTP-binding protein RhoU (Homo sapiens), Q7L0Q8 F86C, sequence (Q7L0Q8 whole entry F86C): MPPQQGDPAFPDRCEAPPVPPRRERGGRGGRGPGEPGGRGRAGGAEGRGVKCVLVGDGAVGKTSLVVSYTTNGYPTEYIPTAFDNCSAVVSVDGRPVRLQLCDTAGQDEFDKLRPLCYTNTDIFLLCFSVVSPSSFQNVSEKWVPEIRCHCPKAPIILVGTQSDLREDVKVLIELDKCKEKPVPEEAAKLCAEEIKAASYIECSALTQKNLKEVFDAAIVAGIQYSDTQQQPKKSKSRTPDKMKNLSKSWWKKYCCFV

## Rho-related GTP-binding protein RhoU (Homo sapiens), Q7L0Q8 F83G
[1]
  effect of a mutation on the interaction: disrupting interaction

## Rho-related GTP-binding protein RhoU (Homo sapiens), Q7L0Q8 F86C
[1]
  effect of a mutation on the interaction: disrupting interaction
[2]
  effect of a mutation on the interaction: decreasing interaction

## Rho-related GTP-binding protein RhoU (Homo sapiens), Q7L0Q8 P80G
[1]
  effect of a mutation on the interaction: disrupting interaction
[2]
  effect of a mutation on the interaction: decreasing interaction

## Rho-related GTP-binding protein RhoU (Homo sapiens), Q7L0Q8 Q107L
[3]
  effect of a mutation on the interaction: decreasing interaction

## Rho-related GTP-binding protein RhoU (Homo sapiens), Q7L0Q8 T63N
[4]
  effect of a mutation on the interaction: disrupting interaction
[3]
  effect of a mutation on the interaction: decreasing interaction
